Measurements as given in IntAct's records for PubMed 23348841.

B1: Nonsense-mediated mRNA decay factor SMG7 (Homo sapiens), Q92540 (parent)
chain: MSLQSAQYLRQAEVLKADMTDSKLGPAEVWTSRQALQDLYQKMLVTDLEYALDKKVEQDLWNHAFKNQITTLQGQAKNRANPNRSEVQANLSLFLEAASGFYTQLLQELCTVFNVDLPCRVKSSQLGIISNKQTHTSAIVKPQSSSCSYICQHCLVHLGDIARYRNQTSQAESYYRHAAQLVPSNGQPYNQLAILASSKGDHLTTIFYYCRSIAVKFPFPAASTNLQKALSKALESRDEVKTKWGVSDFIKAFIKFHGHVYLSKSLEKLSPLREKLEEQFKRLLFQKAFNSQQLVHVTVINLFQLHHLRDFSNETEQHTYSQDEQLCWTQLLALFMSFLGILCKCPLQNESQEESYNAYPLPAVKVSMDWLRLRPRVFQEAVVDERQYIWPWLISLLNSFHPHEEDLSSISATPLPEEFELQGFLALRPSFRNLDFSKGHQGITGDKEGQQRRIRQQRLISIGKWIADNQPRLIQCENEVGKLLFITEIPELILEDPSEAKENLILQETSVIESLAADGSPGLKSVLSTSRNLSNNCDTGEKPVVTFKENIKTREVNRDQGRSFPPKEVRRDYSKGITVTKNDGKKDNNKRKTETKKCTLEKLQETGKQNVAVQVKSQTELRKTPVSEARKTPVTQTPTQASNSQFIPIHHPGAFPPLPSRPGFPPPTYVIPPPVAFSMGSGYTFPAGVSVPGTFLQPTAHSPAGNQVQAGKQSHIPYSQQRPSGPGPMNQGPQQSQPPSQQPLTSLPAQPTAQSTSQLQVQALTQQQQSPTKAVPALGKSPPHHSGFQQYQQADASKQLWNPPQVQGPLGKIMPVKQPYYLQTQDPIKLFEPSLQPPVMQQQPLEKKMKPFPMEPYNHNPSEVKVPEFYWDSSYSMADNRSVMAQQANIDRRGKRSPGVFRPEQDPVPRMPFEKSLLEKPSELMSHSSSFLSLTGFSLNQERYPNNSMFNEVYGKNLTSSSKAELSPSMAPQETSLYSLFEGTPWSPSLPASSDHSTPASQSPHSSNPSSLPSSPPTHNHNSVPFSNFGPIGTPDNRDRRTADRWKTDKPAMGGFGIDYLSATSSSESSWHQASTPSGTWTGHGPSMEDSSAVLMESLKSIWSSSMMHPGPSALEQLLMQQKQKQQRGQGTMNPPH
partner: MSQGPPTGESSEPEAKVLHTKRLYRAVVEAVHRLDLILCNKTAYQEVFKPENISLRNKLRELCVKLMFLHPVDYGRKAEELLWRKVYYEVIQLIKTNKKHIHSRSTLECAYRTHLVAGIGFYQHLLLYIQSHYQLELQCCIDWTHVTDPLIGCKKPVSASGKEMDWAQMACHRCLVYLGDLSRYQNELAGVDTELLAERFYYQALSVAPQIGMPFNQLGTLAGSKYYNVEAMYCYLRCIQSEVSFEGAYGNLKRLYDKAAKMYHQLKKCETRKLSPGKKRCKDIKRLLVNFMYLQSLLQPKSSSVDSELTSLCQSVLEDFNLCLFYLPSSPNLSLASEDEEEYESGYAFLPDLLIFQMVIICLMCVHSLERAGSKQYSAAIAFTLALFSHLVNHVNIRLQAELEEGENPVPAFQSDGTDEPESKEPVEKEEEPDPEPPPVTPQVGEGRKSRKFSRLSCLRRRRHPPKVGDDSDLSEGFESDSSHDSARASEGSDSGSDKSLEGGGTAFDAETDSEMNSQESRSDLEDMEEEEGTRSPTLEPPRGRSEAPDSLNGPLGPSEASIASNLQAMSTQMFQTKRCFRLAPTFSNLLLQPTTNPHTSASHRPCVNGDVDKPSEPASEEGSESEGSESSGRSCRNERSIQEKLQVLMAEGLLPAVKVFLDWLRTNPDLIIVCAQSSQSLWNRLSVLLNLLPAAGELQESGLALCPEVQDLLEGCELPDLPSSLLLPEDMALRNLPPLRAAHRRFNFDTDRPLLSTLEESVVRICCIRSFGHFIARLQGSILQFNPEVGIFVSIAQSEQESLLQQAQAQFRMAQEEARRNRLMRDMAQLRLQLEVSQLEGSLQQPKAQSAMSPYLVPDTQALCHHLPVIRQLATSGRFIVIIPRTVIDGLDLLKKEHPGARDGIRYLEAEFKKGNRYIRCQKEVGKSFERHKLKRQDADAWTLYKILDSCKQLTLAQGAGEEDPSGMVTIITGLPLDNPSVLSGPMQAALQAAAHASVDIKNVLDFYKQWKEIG
B2: Nonsense-mediated mRNA decay factor SMG5 (Homo sapiens), Q9UPR3 (parent)
chain: B1 partner
partner: B1 chain

Variants of: B1
Conditions: with smg5_human SMG5, Q9UPR3

Variant	effect of a mutation on the interaction
G100E	disrupting interaction strength
T103E	disrupting interaction strength

Variants of: B2
Conditions: with smg7_human SMG7, Q92540

Variant	effect of a mutation on the interaction
G120E	disrupting interaction strength
